pKd: −log10 of the molar value. Where no end group is shown, it is not given here.
Experiments:
[1] = Circular dichroism (CD) of the selected peptide, percentage of alpha-helix; assay type: physicochemical; conditions: for degree of alpha-helices (percentage of alpha-helix, fn): CD at 20° C., 222 nm; for degree of alpha-helices, comparison with Rev peptide (number in parenthesis): relative to Rev peptide (natural RRE RNA binding peptide)
Method: CD was measured at 20° C. by using JASCO model J715 spectropolarimeter. Scanning of 190-260 nm wave length was performed three times with 1 nm of bandwidth, 0.5 nm of datapitch and 100 nm/min speed. The results of the scanning were averaged to obtain CD data. Background spectrum was measured to correct the basic spectrum, and CD signals were converted into mean residue ellipticity [Q]. The percentage of alpha-helix (fn) is calculated by the following formula. [Q]=Qobs[MRW/(101c)]
MRW=mean residue weight (molecular weight is divided by the number of peptide bond), I=length of passway (cm), C=concentration (mg/mL). fn=([Q]222−[Q]coil)/([Q]helix−[Q]coil)
[Q]222=mean residue ellipticity (deg cm2 mol−1) at 222 nm, [Q]helix=ellipticity of authentic helical peptide, [Q]coil=ellipticity of authentic random coil peptide, n=number of amino acid, t=° C.

TAR RNA = experiment: Binding capacity to TAR RNA by fluorescence anisotropy
Method: (§1) The detailed investigation on the specificity of peptide 16 (SEQ. ID. No 16) was not performed in the present invention, however the binding capacity to TAR RNA and tRNA, general peptides having stem-loop, was tested by fluorescence anisotropy.

RRE RNA of HIV-1 = experiment: Binding capacity of peptide to RRE RNA, fluorescence anisotropy in competition with CRP probe
Method: 100 ml of RRE RNA solution was prepared at the concentration of […], which stood at 65° C. for 10 minutes. Then, the solution was cooled down slowly at room temperature to induce folding. Peptide solution was prepared respectively at the concentration of […] and 1.0 mM, and both of them were maintained at 0° C. […] CRP (5-carboxytetramethylrhodamine labeled paromomycin) was prepared as a probe. Buffer solution was prepared by mixing 140 mM NaCl, 5 mM KCl, 1 mM MgCl2 and 20 mM HEPES (N-2-Hydroxyethylpiperazine-N′-2-Ethanesulfonic Acid, pH 7.4). Fluorescence anisotropy was measured with AMINCO-Bowman Series Luminescence Spectrometer at 20° C. 10 nM CRP was added to […] of buffer solution, to which RRE RNA was added in order to combine CRP with RNA. At that time, anisotropy was increased. Thereafter, peptide competitively binding to CRP was added and the changes of anisotropy were measured. The binding capacity to RRE RNA of the peptide was determined by the KaleidaGraph as follows; [Peptide]=Kd(Amax−A)/[Kd(A−A0)+1]*[RNA]−Kd(A−A0)/(Amax−A)[CRP]0(A−A0)/(Amax−A0)
[Peptide] indicates the concentration of the peptide, [RNA] indicates the concentration of RNA and [CRP] indicates the concentration of CRP. A is the value of fluorescence anisotropy of a sample, Amax is the value of totally bound tracer and A0 is the value of totally free tracer.

tRNA = experiment: Binding capacity to tRNA by fluorescence anisotropy
Method: as §1

Substance | degree of alpha-helices (percentage of alpha-helix, fn) [1] | degree of alpha-helices, comparison with Rev peptide (number in parenthesis) [1] | binding capacity to TAR RNA (TAR RNA) | pKd (RRE RNA of HIV-1) | binding capacity to tRNA (tRNA)
LK*KLLKLLK*KLLK*LKG (LK(dimethyl)KLLKLLK(dimethyl)KLLK(dimethyl)LKG-NH2) [peptide 33, K* is dimethylated lysine] | 7.5 | 1.1 | – | – | –
LKK*LLKLLK*KLLKLKG (LKK(dimethyl)LLKLLK(dimethyl)KLLKLKG-NH2) [peptide 16, K* is dimethylated lysine] | 13 | 2.0 | hundreds and tens | > 9.00 | hundreds and tens
LKK*LLKLLKKLLK*LKG (LKK(dimethyl)LLKLLKKLLK(dimethyl)LKG-NH2) [peptide 18, K* is dimethylated lysine] | 4.9 | 0.71 | – | – | –
LKK*LLKLLKKLLKLKG (LKK(dimethyl)LLKLLKKLLKLKG-NH2) [peptide 3, K* is dimethylated lysine] | 4.9 | 0.72 | – | – | –
LKKLLKLLK*KLLK*LKG (LKKLLKLLK(dimethyl)KLLK(dimethyl)LKG-NH2) [peptide 25, K* is dimethylated lysine] | 6.6 | 1.0 | – | – | –
LKKLLKLLKKLLK*LKG (LKKLLKLLKKLLK(dimethyl)LKG-NH2) [peptide 7, K* is dimethylated lysine] | 2.7 | 0.40 | – | – | –
LKKLLKLLKKLLKLKG [peptide 1] | 15 | 2.2 | – | – | –
